Measured values: US20250236663A1 (NEURACLE SCIENCE, published 2025)

Experiments:
[1] = biological target: T1, FAM19A5 fragment 5 mutant peptide F5-1 (#1) (human); experiment: ELISA on the coated F5 mutant peptide
T1 construct: The entry already carries the alanine substitution and Ser for Cys; also called mutant peptide #1
T1 peptide: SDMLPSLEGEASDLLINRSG
Protocol: (§1) Overlapping peptide fragments (F1-F6, see FIG. 9) of the human FAM19A5 protein were synthesized and conjugated to BSA. Binding of the different anti-FAM19A5 antibodies to the BSA-conjugated peptide fragments F1-F6 was determined by Western blot analysis or ELISA assay. For the Western blot analysis, BSA-conjugated FAM19A5 fragments F1-F6 were separated by SDS polyacrylamide gel electrophoresis and transferred to a nitrocellulose membrane by the standard procedure. The membrane was incubated with the anti-FAM19A5 antibody (e.g., 1-65, 2 μg/ml, 1-65-scFv-rabbit Fc-SSS), and the antigen-antibody complexes were detected with the appropriate secondary antibody conjugated with horse-radish peroxidase (anti-rabbit IgG (Fc specific)-HRP, 1:4000 dilution). For the ELISA assay, the following protocol was used. FAM19A5 fragment F1-F6 (diluted to 1 μg/mL in 50 mM carbonate buffer (Biosesang) or to 20 μg/mL for high concentration analysis) were used to coat the wells of 96-well immuno plates (Thermo Scientific) (100 μL/well) overnight at 4° C. and then subsequently washed twice in 1×PBS. The plates were then blocked with the blocking buffer (100 μL/well) for 1 hour at room temperature. During the 1-hour incubation, the relevant anti-FAM19A5 antibodies were diluted to 1 μg/mL (or 20 μg/mL for high concentration analysis) in the diluent buffer. Once the plates were washed (2× using 1×PBS), the diluted anti-FAM19A5 antibodies were added to the appropriate wells, and the plates were incubated at room temperature for 1 hour. The plates were subsequently washed for a total of five times using the washing buffer. Next, the ODP substrate (prepared by dissolving one ODP tablet (O-phenylenediamine Dihydrochloride, Thermo) into 9 mL of sterilized deionized water and 1 mL of 10× stable Peroxide Stable buffer (Theromo)) was added to each of the wells, and the color change reaction was allowed to occur for 10 minutes. This reaction was stopped by adding 100 μL of 2N H2SO4 (Daejung) to the wells. The absorption value of each of the wells was detected at 492 nm using a 96-well microplate reader (Molecular Device).
(§2) Next, to identify the specific amino acid residues within the epitope fragment F5 that the 1-65 and P2-C12 antibodies bind to, different amino acid residues of the F5 fragment were replaced with alanine as shown in Table 9 (below).

[2] = biological target: T2, FAM19A5 fragment 5 mutant peptide F5-2 (#2) (human); experiment: ELISA on the coated F5 mutant peptide
T2 construct: The entry already carries the alanine substitution and Ser for Cys; also called mutant peptide #2
T2 sequence (peptide, as listed by the source mutant): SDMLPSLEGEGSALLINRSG
Protocol: as §1, §2

[3] = biological target: T3, FAM19A5 fragment 5 mutant peptide F5-4 (#4) (human); experiment: ELISA on the coated F5 mutant peptide
T3 construct: The entry already carries the alanine substitution and Ser for Cys; also called mutant peptide #4
T3 sequence (peptide, as listed by the source mutant): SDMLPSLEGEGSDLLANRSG
Protocol: as §1, §2

[4] = biological target: T4, FAM19A5 fragment 5 mutant peptide F5-6 (#6) (human); experiment: ELISA on the coated F5 mutant peptide
T4 construct: The entry already carries the alanine substitution and Ser for Cys; also called mutant peptide #6
T4 sequence (peptide, as listed by the source mutant): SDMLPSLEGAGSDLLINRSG
Protocol: as §1, §2

[5] = biological target: T5, FAM19A5 fragment 5 mutant peptide F5-7 (#7) (human); experiment: ELISA on the coated F5 mutant peptide
T5 construct: The entry already carries the alanine substitution and Ser for Cys; also called mutant peptide #7
T5 sequence (peptide, as listed by the source mutant): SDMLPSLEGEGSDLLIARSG
Protocol: as §1, §2

[6] = biological target: T6, FAM19A5 fragment 5 mutant peptide F5-3 (#3) (human); experiment: ELISA on the coated F5 mutant peptide
T6 construct: The entry already carries the alanine substitution and Ser for Cys; also called mutant peptide #3
T6 sequence (peptide, as listed by the source mutant): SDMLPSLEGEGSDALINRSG
Protocol: as §1, §2

[7] = biological target: T7, FAM19A5 fragment 5 mutant peptide F5-5 (#5) (human); experiment: ELISA on the coated F5 mutant peptide
T7 construct: The entry already carries the alanine substitution and Ser for Cys; also called mutant peptide #5
T7 peptide: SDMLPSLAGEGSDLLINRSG
Protocol: as §1, §2

[8] = biological target: T8, FAM19A5 fragment 5 mutant peptide F5-8 (#8) (human); experiment: ELISA on the coated F5 mutant peptide
T8 construct: The entry already carries the alanine substitution and Ser for Cys; also called mutant peptide #8
T8 peptide: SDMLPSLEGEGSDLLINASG
Protocol: as §1, §2

FAM19A5 mutant M6 = biological target: T9, FAM19A5 mutant M6 (human); experiment: ELISA on phage-displayed FAM19A5 mutants; y axis without label
T9 construct: FAM19A5 with region 6 replaced by the consensus of FAM19A1-4; The entry already carries the changes
T9 chain: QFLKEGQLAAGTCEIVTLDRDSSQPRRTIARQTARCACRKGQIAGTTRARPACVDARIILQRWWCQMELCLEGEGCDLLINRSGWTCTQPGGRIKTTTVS

FAM19A5 mutant M8 = biological target: T10, FAM19A5 mutant M8 (human); experiment: as above
T10 construct: FAM19A5 with region 8 replaced by the consensus of FAM19A1-4; The entry already carries the changes
T10 chain: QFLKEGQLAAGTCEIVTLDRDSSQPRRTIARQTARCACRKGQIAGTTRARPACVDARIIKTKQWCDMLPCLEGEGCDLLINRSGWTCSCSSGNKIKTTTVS

FAM19A5 mutant M7 = biological target: T11, FAM19A5 mutant M7 (human); experiment: as above
T11 construct: FAM19A5 with region 7 replaced by the consensus of FAM19A1-4; The entry already carries the changes
T11 chain: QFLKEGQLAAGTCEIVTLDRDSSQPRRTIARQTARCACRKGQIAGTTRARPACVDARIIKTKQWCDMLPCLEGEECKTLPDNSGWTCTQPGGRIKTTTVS

B1: chimeric anti-FAM19A5-IgG2/4 monoclonal antibody (1-65) (antibody, V domains shown)
VH: AVTLDESGGGLQTPGGALSLVCKASGFTFSSYQMGWVRQAPGKGLEWVGVINKSGSDTSYGSAVKGRATISRDNGQSTVRLQLNNLRAEDTGTYFCAKGSASYITAATIDAWGHGTEVIVSS
VL: ALTQPSSVSANPGETVKITCSGGGSSGYGYGWYQQKSPSSAPLTVIYWNDKRPSDIPSRFSGSKSGSTHTLTITGVQAEDEAVYFCGNDDYSSDSGYVGVFGAGTTLTVL
notes: Chicken-derived variable domains; also called anti-FAM19A5 antibody 1-65; Anti-FAM19A5 (1-65)
[1]
  O.D (492nm): 1.5
[2]
  O.D (492nm): 0.155
  binding result: no binding
[3]
  O.D (492nm): 0.688
[4]
  O.D (492nm): 1.41
[5]
  O.D (492nm): 1.64
[6]
  O.D (492nm): 0.15
  binding result: no binding
[7]
  O.D (492nm): 1.57
[8]
  O.D (492nm): 0.181
  binding result: no binding
FAM19A5 mutant M6
  binding result: no binding
FAM19A5 mutant M8
  binding result: no binding
FAM19A5 mutant M7
  binding result: no binding
